This test addresses epidermal growth factor receptor (EGFR) on EGFR positive U87 cells (UniProt P00533). The experiment in a line: FACS saturation binding to EGFR receptor.

“Anti-EGFR-Angiopep-2 conjugate (EGFR antibody monoclonal 528 cross-linked to Angiopep-2 with SATA)” yielded a Half saturation of 1.8 nM.

Substance “EGFR antibody (monoclonal 528 available from ATCC)” had a Bmax (RFU) of 23.6 RFU and a Half saturation of 1.7 nM.

The values are drawn from EP2164866B1.
